According to US20230280343A1 (NEW YORK UNIVERSITY, published 2023):

Target: T1, SARS-CoV-2 spike receptor binding domain (RBD) (SARS-CoV-2, UniProt P0DTC2 319-541)
T1 construct: domain: RBD

## GDLAPQMLRELQETNAALQDVRELLRQQVKEITFLKNTVMECDACGKLN (other, also called parent protein C; ccCOMP) [coiled-coil domain of the cartilage oligomeric matrix protein (C)]
  binding result: no binding
